Results on 2 molecules are retold here after publication PMC11633740, “Rapid prediction of acute thrombosis via nanoengineered immunosensors with unsupervised clustering for multiple circulating biomarkers”.

The target in data set [1] is soluble P-selectin (sP-selectin) (human, UniProt P16109 42-771). As to the kind of experiment: electrochemical impedance spectroscopy; aptamer on Au NP/CNT electrode; linear 0.1-10^4 ng/ml, LOD 0.019 ng/ml; SPR (Biacore 2000, SA chip): 10 mM Hepes, 150 mM NaCl, pH 7.4, 0.005% Tween 20, 25 C; EIS: 45 min incubation (plasma workflow), PBS pH 7.4 washes, 5 mM ferri/ferrocyanide probe. The note with it: protein: commercial.
soluble P-selectin (sP-selectin), sequence (P16109 42-771): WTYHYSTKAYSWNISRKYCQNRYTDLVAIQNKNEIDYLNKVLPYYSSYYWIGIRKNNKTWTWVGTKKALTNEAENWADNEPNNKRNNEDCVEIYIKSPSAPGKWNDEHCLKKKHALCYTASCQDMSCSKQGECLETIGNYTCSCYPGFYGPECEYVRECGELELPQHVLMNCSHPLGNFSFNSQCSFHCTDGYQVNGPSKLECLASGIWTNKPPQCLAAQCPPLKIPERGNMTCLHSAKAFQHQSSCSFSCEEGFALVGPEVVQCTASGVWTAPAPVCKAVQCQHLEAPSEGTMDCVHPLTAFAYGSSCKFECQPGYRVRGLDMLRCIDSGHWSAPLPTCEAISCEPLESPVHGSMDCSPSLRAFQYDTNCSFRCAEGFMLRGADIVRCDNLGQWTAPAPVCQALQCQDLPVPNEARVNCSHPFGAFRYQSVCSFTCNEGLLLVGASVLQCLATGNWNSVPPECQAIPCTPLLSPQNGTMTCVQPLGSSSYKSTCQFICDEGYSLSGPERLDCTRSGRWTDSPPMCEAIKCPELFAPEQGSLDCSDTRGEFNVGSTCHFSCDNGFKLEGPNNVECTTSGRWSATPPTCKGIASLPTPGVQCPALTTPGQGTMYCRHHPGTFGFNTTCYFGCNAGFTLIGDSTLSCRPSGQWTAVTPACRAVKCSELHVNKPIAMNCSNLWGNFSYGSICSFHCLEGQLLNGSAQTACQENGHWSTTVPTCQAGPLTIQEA

The target in data set [2] is T1, C-reactive protein (CRP) (human, UniProt P02741 19-224).
T1 sequence: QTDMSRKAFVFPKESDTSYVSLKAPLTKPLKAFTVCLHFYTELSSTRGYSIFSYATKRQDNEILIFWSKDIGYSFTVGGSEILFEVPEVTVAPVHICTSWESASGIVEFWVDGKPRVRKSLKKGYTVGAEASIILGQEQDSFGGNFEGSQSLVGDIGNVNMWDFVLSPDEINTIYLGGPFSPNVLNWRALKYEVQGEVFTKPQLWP
The experiment in a line: electrochemical impedance spectroscopy; aptamer on Au NP/CNT electrode; linear 0.1-10^4 ug/ml, LOD 0.023 ug/ml; SPR (Biacore 2000, SA chip): 10 mM Hepes, 150 mM NaCl, pH 7.4, 0.005% Tween 20, 25 C; EIS: 45 min incubation (plasma workflow), PBS pH 7.4 washes, 5 mM ferri/ferrocyanide probe. The following applies: protein: commercial; chain copies: 5.

B1: sP-selectin aptamer (ssRNA)
RNA: ACGCUCAACGAGCCAGGAACAUCGACGUCAGCAAACGCGAGCGCAACCAGUAACACC
modifications: thiol (position not given) for the electrode; no 2' modification stated
With B1, in data set [1], the binding result was “binds”.

With GCCTGTAAGGTGGTCGGTGTGGCGAGTGTGTTAGGAGAGATTGC (ssDNA, thiol (position not given) for the electrode) [CRP aptamer], in data set [2], the binding result is on record as “binds”.
